B1: H2-Kb / B15 (parent complex)
chain 1: QQQVRQSPQSLTVWEGETAILNCSYENSAFDYFPWYQQFPGEGPALLISILSVSDKKEDGRFTIFFNKREKKLSLHIADSQPGDSATYFCAASAASNNRLTLGKGTQVVVLP
chain 2: DSGVVQSPRHIIKEKGGRSVLTCIPISGHSNVVWYQQTLGKELKFLIQHYEKVERDKGFLPSRFSVQQFDDYHSEMNMSALELEDSAMYFCASSRRADAEQFFGPGTRLTVL
chain 3: not shown
chain 4: IQKTPQIQVYSRHPPENGKPNILNCYVTQFHPPHIEIQMLKNGKKIPKVEMSDMSFSKDWSFYILAHTEFTPTETDTYACRVKHDSMAEPKTVYWDRDM
chain 5: SIINFEKL

Variants of: B1
Experiment: % of reporter cells activated (NFAT-GFP), raw; further: test concentration or dose not given here

Variant	ratio to parent
chain 5 E6F	0.13
chain 5 E6S	0.221
chain 5 E6A	0.205
chain 5 E6V	0.0123
chain 5 E6Y	0.15
chain 5 E6G	0.491
chain 5 E6I	0.00958
chain 5 K7E	0.0434
chain 5 K7I	0.0863
chain 5 K7H	0.291
chain 5 K7D	0.117
chain 5 F5V	0.999
chain 5 F5Q	0.579
chain 5 F5T	1.03
chain 5 F5D	0.553
chain 5 F5E	0.531
chain 5 F5Y	0.952
chain 5 F5A	0.953
chain 5 F5N	0.673
chain 5 F5W	0.981

Variant	ratio to parent
chain 5 I3L	0.812
chain 5 I3K	0.71
chain 5 I3T	0.273
chain 5 I3M	0.891
chain 5 I3W	0.479
chain 5 I3C	0.607
chain 5 I3F	0.0424
chain 5 I3H	0.491
chain 5 I3Y	0.0196
chain 5 I2Q	0.85
chain 5 I2H	0.9
chain 5 I2D	0.987
chain 5 I2C	0.934
chain 5 I2R	0.972
chain 5 I2G	0.917
chain 5 I2S	0.959
chain 5 I2L	1.03
chain 5 I2Y	0.764
chain 5 I2N	0.974
chain 5 I2V	1

Next, values leading:

ratio to parent	Variant
0.75	chain 5 L8P
0.955	chain 5 L8M
0.767	chain 5 L8C
0.844	chain 5 L8N
0.802	chain 5 L8S
0.907	chain 5 L8F
0.801	chain 5 L8K
0.833	chain 5 L8A
0.741	chain 5 L8E
0.901	chain 5 L8V
0.934	chain 5 L8I
0.905	chain 5 L8H
0.692	chain 5 L8D
0.774	chain 5 K7S
0.155	chain 5 K7M
0.124	chain 5 K7T
0.454	chain 5 K7V
0.928	chain 5 K7R

ratio to parent	Variant
0.383	chain 5 K7Y
0.199	chain 5 S1V
0.545	chain 5 S1P
0.669	chain 5 S1G
0.577	chain 5 S1C
0.591	chain 5 S1K
0.456	chain 5 S1L
0.383	chain 5 S1W
0.115	chain 5 S1I
0.151	chain 5 N4Y
0.0638	chain 5 N4W
0.00683	chain 5 N4M
0.0258	chain 5 N4A
0.184	chain 5 N4G
0.391	chain 5 N4L
0.01	chain 5 N4T
0.0675	chain 5 N4D
